Measurements reported in patent US20210380703A1.

Each binder was assayed against human Fc (human) (assay: ELISA, negative control).

Row | Binder | optical density [OD]
1 | 372_D03 (antibody, V domains shown) VH: EVQLLESGGGLVQPGGSLRLSCAASGFTFSSYSMNWVRQAPGKGLEWVAGINYNSGYKSYADSVKGRFTISRDNSKNTLYLQMNSLRAEDTAVYYCARGANWHDTALDYWGQGTLVTVSS VL: DIQMTQSPSSLSASVGDRVTITCRASQSILSYVNWYQQKPGKAPKLVIYAVTSRHSGVPSRFSGSGSGTDFTLTISSLQPEDFATYYCQQSYDSPLTFGGGTKVEIK | 0.319
2 | 373_A05 (antibody, V domains shown) VH: EVQLLESGGGLVQPGGSLRLSCAASGFTFSDYSMNWVRQAPGKGLEWVSGINYNSGYKSYADSVKGRFTISRDNSKNTLYLQMNSLRAEDTAVYYCARGANWHDTHLDYWGQGTLVTVSS VL: DIQMTQSPSSLSASVGDRVTITCRASQSILSYVNWYQQKPGKAPKLVIYAATSRHSGVPSRFSGSGSGTDFTLTISSLQPEDFATYYCQQSYESPLTFGGGTKVEIK | 0.172
3 | 367_H01 (antibody, V domains shown) VH: EVQLLESGGGLVQPGGSLRLSCAASGFTFDSYGMNWVRQAPGKGLEWVSGINYNGGYKSYADSVKGRFTISRDNSKNTLYLQMNSLRAEDTAVYYCARAANWHDTALDYWGQGTLVTVSS VL: DIQMTQSPSSLSASVGDRVTITCRASQSILTYLNWYQQKPGKAPKLVIYAATSRASGVPSRFSGSGSGTDFTLTISSLQPEDFATYYCQQSYDNPLTFGGGTKVEIK | 0.388
4 | 372_G12 (antibody, V domains shown) VH: EVQLLESGGGLVQPGGSLRLSCAASGFTFDSYSMNWVRQAPGKGLEWVAGINYNGGYTGYADSVKGRFTISRDNSKNTLYLQMNSLRAEDTAVYYCARGANWHDTHLDYWGQGTLVTVSS VL: DIQMTQSPSSLSASVGDRVTITCRASQSILTYLNWYQQKPGKAPKLVIYAATSRHSGVPSRFSGSGSGTDFTLTISSLQPEDFATYYCQQSYDSPLTFGGGTKVEIK | 0.439

Next, values leading:

Row | optical density [OD] | Binder
5 | 0.248 | 373_A09 (antibody, V domains shown) VH: EVQLLESGGGLVQPGGSLRLSCAASGFTFDSYSMNWVRQAPGKGLEWVAGINYNGGYTSYADSVKGRFTISRDNSKNTLYLQMNSLRAEDTAVYYCARGANWHDTALDYWGQGTLVTVSS VL: DIQMTQSPSSLSASVGDRVTITCRASQSILTYLNWYQQKPGKAPKLLIYAATSLASGVPSRFSGSGSGTDFTLTISSLQPEDFATYYCQQSYDTPLTFGGGTKVEIK
6 | 0.177 | 373_A01 (antibody, V domains shown) VH: EVQLLESGGGLVQPGGSLRLSCAASGFTFSSYGMNWVRQAPGKGLEWVSNINYNGGYTGYADSVKGRFTISRDNSKNTLYLQMNSLRAEDTAVYYCARGANWHDTHLDYWGQGTLVTVSS VL: DIQMTQSPSSLSASVGDRVTITCRASQSIVTYLNWYQQKPGKAPKLVIYATTSRASGVPSRFSGSGSGTDFTLTISSLQPEDFATYYCQQSYNLPLTFGGGTKVEIK
7 | 0.189 | 373_A03 (antibody, V domains shown) VH: EVQLLESGGGLVQPGGSLRLSCAASGFTFSDYSMNWVRQAPGKGLEWVANINYNGGYTGYADSVKGRFTISRDNSKNTLYLQMNSLRAEDTAVYYCARGANWHDTALDYWGQGTLVTVSS VL: DIQMTQSPSSLSASVGDRVTITCRASQSILSYLNWYQQKPGKAPKLVIYAATSRASGVPSRFSGSGSGTDFTLTISSLQPEDFATYYCQQSYDNPLTFGGGTKVEIK
8 | 0.409 | 372_E01 (antibody, V domains shown) VH: EVQLLESGGGLVQPGGSLRLSCAASGFTFDDYSMNWVRQAPGKGLEWVSGINYNGGYKGYADSVKGRFTISRDNSKNTLYLQMNSLRAEDTAVYYCARGANWHDTALDYWGQGTLVTVSS VL: DIQMTQSPSSLSASVGDRVTITCRASQSIVSYLNWYQQKPGKAPKLVIYAATSRHSGVPSRFSGSGSGTDFTLTISSLQPEDFATYYCQQSYDSPLTFGGGTKVEIK
